Laboratory results published in article PMC8946217, “Selective Targeting of Protein Kinase C (PKC)-θ Nuclear Translocation Reduces Mesenchymal Gene Signatures and Reinvigorates Dysfunctional CD8^+ T Cells in Immunotherapy-Resistant and Metastatic Cancers” (Cancers, 2022).

Biological target: biotinylated GST-importin α2 (UniProt P52293 1-529, biotinylated)
Experiment: AlphaScreen or HTRF; about 30 nM His6-PKC-θ and increasing concentrations of biotinylated GST-importins; in triplicate; three parameter sigmoidal curves fitted; quenched values in the hooking zone excluded
Details: both partners purified

B1: His6-PKC-θ (protein kinase C theta) (enzyme)
chain: MSPFLRIGLSNFDCGSCQSCQGEAVNPYCAVLVKEYVESENGQMYIQKKPTMYPPWDSTFDAHINKGRVMQIIVKGKNVDLISETTVELYSLAERCRKNNGKTEIWLELKPQGRMLMNARYFLEMSDTKDMNEFETEGFFALHQRRGAIKQAKVHHVKCHEFTATFFPQPTFCSVCHEFVWGLNKQGYQCRQCNAAIHKKCIDKVIAKCTGSAINSRETMFHKERFKIDMPHRFKVYNYKSPTFCEHCGTLLWGLARQGLKCDACGMNVHHRCQTKVANLCGINQKLMAEALAMIESTQQARCLRDTEQIFREGPVEIGLPCSIKNEARPPCLPTPGKREPQGISWESPLDEVDKMCHLPEPELNKERPSLQIKLKIEDFILHKMLGKGSFGKVFLAEFKKTNQFFAIKALKKDVVLMDDDVECTMVEKRVLSLAWEHPFLTHMFCTFQTKENLFFVMEYLNGGDLMYHIQSCHKFDLSRATFYAAEIILGLQFLHSKGIVYRDLKLDNILLDKDGHIKIADFGMCKENMLGDAKTNTFCGTPDYIAPEILLGQKYNHSVDWWSFGVLLYEMLIGQSPFHGQDEEELFHSIRMDNPFYPRWLEKEAKDLLVKLFVREPEKRLGVRGDIRQHPLFREINWEELERKEIDPPFRPKVKSPFDCSNFDKEFLNEKPRLSFADRALINSMDQNMFRNFSFMNPGMERLIS
notes: protein kinase C theta (PKC-θ); also called recombinant purified His6-PKC-θ; source: recombinant, purified
Q: Which Kd does the source give for B1 here?
A: 2.75 nM
